According to patent publication US20210246166A1 (Bayer, published 2021):
Bridge positions count the residues as written; N and C are the ends. Square brackets hold non-standard residues; d marks the D form. Ends that are not written are not given here. * marks the point of attachment. X5 = Tetrahydropyranyl‑4‑acetic acid, O=C(CC1CCOCC1)*; Oic = O=C(O)[C@@H]1C[C@@H]2CCCC[C@@H]2N1; Cyclopropanecarbonyl = O=C(C1CC1)*; Hyp = O=C(O)[C@@H]1C[C@@H](O)CN1; NMeI = CC[C@H](C)[C@H](NC)C(=O)O; aIle = CC[C@@H](C)[C@H](N)C(=O)O; tBuAla = CC(C)(C)C[C@H](N)C(=O)O; Pen = CC(C)(S)[C@H](N)C(=O)O; NMeC = CN[C@@H](CS)C(=O)O; Me2Gly = CN(C)CC(=O)*; Sar = CNCC(=O)O

How the values were obtained:
[1] = molecular target: T1, recombinant human MASP1 active protease (amino acids 297-699, C-terminal His Tag) (human, UniProt P48740 297-699); test: cell-based or functional assay
T1 sequence: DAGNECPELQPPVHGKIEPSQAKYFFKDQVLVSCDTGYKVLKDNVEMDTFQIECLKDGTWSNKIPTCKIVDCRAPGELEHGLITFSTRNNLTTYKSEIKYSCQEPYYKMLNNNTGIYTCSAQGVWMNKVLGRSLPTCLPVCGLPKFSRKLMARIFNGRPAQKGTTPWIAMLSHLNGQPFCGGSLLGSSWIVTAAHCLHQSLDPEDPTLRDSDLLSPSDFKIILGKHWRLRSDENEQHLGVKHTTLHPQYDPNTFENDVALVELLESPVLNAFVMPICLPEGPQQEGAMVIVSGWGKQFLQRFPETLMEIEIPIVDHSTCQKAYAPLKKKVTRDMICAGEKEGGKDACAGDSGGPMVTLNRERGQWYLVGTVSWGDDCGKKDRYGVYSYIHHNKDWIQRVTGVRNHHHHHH

[2] = molecular target: recombinant human MASP2 active protease (amino acids 297-686, C-terminal His Tag) (human, UniProt O00187 297-686); test: cell-based or functional assay
Sequence of recombinant human MASP2 active protease (amino acids 297-686, C-terminal His Tag) (O00187 other isoform, or with tags, fused parts or gaps limits assumed): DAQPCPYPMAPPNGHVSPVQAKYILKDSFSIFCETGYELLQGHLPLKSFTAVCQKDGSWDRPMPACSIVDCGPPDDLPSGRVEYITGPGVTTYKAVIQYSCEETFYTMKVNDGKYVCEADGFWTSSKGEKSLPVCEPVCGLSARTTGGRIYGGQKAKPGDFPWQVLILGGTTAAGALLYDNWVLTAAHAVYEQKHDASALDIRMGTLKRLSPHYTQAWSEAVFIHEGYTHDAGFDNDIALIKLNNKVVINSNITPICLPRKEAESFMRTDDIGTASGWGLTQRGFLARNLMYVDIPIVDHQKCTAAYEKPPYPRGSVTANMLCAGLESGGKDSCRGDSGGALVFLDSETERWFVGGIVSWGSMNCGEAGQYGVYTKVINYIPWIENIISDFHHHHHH

Binder	human MASP1 IC50 [1]	human MASP2 IC50 [2]
[Sar][NMeI]CSRSLPPICIPD-NH2 (disulfide 3-11; N-terminus assumed; SMILES CC[C@H](C)[C@@H]1NC(=O)[C@@H]2CCCN2C(=O)[C@@H]2CCCN2C(=O)[C@H](CC(C)C)NC(=O)[C@H](CO)NC(=O)[C@H](CCCNC(=N)N)NC(=O)[C@H](CO)NC(=O)[C@@H](NC(=O)[C@H]([C@@H](C)CC)N(C)C(=O)CNC)CSSC[C@@H](C(=O)N[C@H](C(=O)N2CCC[C@H]2C(=O)N[C@@H](CC(=O)O)C(N)=O)[C@@H](C)CC)NC1=O) [Example 340: ((N-Me)G)-((N-Me)I)-C+SRSLPPIC+IPD-NH2]	0.026 µM	0.3 µM
AICSRSLPP[aIle]CIPD-NH2 (disulfide 3-11; N-terminus assumed; SMILES CC[C@@H](C)[C@@H]1NC(=O)[C@@H]2CCCN2C(=O)[C@@H]2CCCN2C(=O)[C@H](CC(C)C)NC(=O)[C@H](CO)NC(=O)[C@H](CCCNC(=N)N)NC(=O)[C@H](CO)NC(=O)[C@@H](NC(=O)[C@@H](NC(=O)[C@H](C)N)[C@@H](C)CC)CSSC[C@@H](C(=O)N[C@H](C(=O)N2CCC[C@H]2C(=O)N[C@@H](CC(=O)O)C(N)=O)[C@@H](C)CC)NC1=O) [Example 346: AIC+SRSLPP-(allo-I)-C+IPD-NH2]	0.027 µM	0.19 µM
AICSRS[2‑Amino‑7‑(tert-butoxy)‑7‑oxoheptanoic acid]PPI[Pen]IPD-NH2 (disulfide 3-11) [Example 344: AIC+SRS-(2-Amino-7-(tert-butoxy)-7-oxoheptanoic acid)-PPI-(Pen)+IPD-NH2]	0.027 µM	0.051 µM
ICSRSLP[Oic]I[Pen]I-NH2 (disulfide 2-10; N-terminus assumed; SMILES CC[C@H](C)[C@H](N)C(=O)N[C@H]1CSSC(C)(C)[C@@H](C(=O)N[C@H](C(N)=O)[C@@H](C)CC)NC(=O)[C@H]([C@@H](C)CC)NC(=O)[C@@H]2C[C@@H]3CCCC[C@@H]3N2C(=O)[C@@H]2CCCN2C(=O)[C@H](CC(C)C)NC(=O)[C@H](CO)NC(=O)[C@H](CCCNC(=N)N)NC(=O)[C@H](CO)NC1=O) [Example 341: IC+SRSLP-(Oic)-I-(Pen)+I-NH2]	0.026 µM	0.43 µM
[Sar]ICSRSLPPICIPE-OH (disulfide 3-11; N-terminus assumed; SMILES CC[C@H](C)[C@H](NC(=O)CNC)C(=O)N[C@H]1CSSC[C@@H](C(=O)N[C@H](C(=O)N2CCC[C@H]2C(=O)N[C@@H](CCC(=O)O)C(=O)O)[C@@H](C)CC)NC(=O)[C@H]([C@@H](C)CC)NC(=O)[C@@H]2CCCN2C(=O)[C@@H]2CCCN2C(=O)[C@H](CC(C)C)NC(=O)[C@H](CO)NC(=O)[C@H](CCCNC(=N)N)NC(=O)[C@H](CO)NC1=O) [Example 339: ((N-Me)G)-IC+SRSLPPIC+IPE-OH]	0.026 µM	0.64 µM
GICSRSLPPICI[Hyp]D-OH (disulfide 3-11; N-terminus assumed; SMILES CC[C@H](C)[C@H](NC(=O)CN)C(=O)N[C@H]1CSSC[C@@H](C(=O)N[C@H](C(=O)N2C[C@H](O)C[C@H]2C(=O)N[C@@H](CC(=O)O)C(=O)O)[C@@H](C)CC)NC(=O)[C@H]([C@@H](C)CC)NC(=O)[C@@H]2CCCN2C(=O)[C@@H]2CCCN2C(=O)[C@H](CC(C)C)NC(=O)[C@H](CO)NC(=O)[C@H](CCCNC(=N)N)NC(=O)[C@H](CO)NC1=O) [Example 348: GIC+SRSLPPIC+I-(Hyp)-D-OH]	0.028 µM	0.69 µM
XXAICSRS[tBuAla]PPI[Pen]IPD-OH (disulfide 5-13; not fully specified (N-terminus); printed as (D-(+)Biotin)-(Ahx)-AIC + SRS-((tBu)A)-PPI-(Pen) + IPD-OH) [Example 352: (D-(+)Biotin)-(Ahx)-AIC+SRS-((tBu)A)-PPI-(Pen)+IPD-OH]	0.028 µM	0.071 µM
Cyclopropanecarbonyl-ICSRS[tBuAla]PPI[NMeC]I-NH2 (disulfide 2-10; SMILES CC[C@H](C)[C@H](NC(=O)[C@@H]1CSSC[C@H](NC(=O)[C@@H](NC(=O)C2CC2)[C@@H](C)CC)C(=O)N[C@@H](CO)C(=O)N[C@@H](CCCNC(=N)N)C(=O)N[C@@H](CO)C(=O)N[C@@H](CC(C)(C)C)C(=O)N2CCC[C@H]2C(=O)N2CCC[C@H]2C(=O)N[C@@H]([C@@H](C)CC)C(=O)N1C)C(N)=O) [Example 353: (Cyclopropanecarboxylic)-IC+SRS-((tBu)A)-PPI-((N-Me)C)+I-NH2]	0.028 µM	0.05 µM
[(2S,3S)‑2‑((3R)-3-Amino-2-oxopyrrolidin-1-yl)‑3‑methylpentanoic acid]CSRSLPPICIAD-OH (disulfide 2-10)	0.026 µM	0.36 µM
[Sar]ICSRSLP[Oic]ICIPD-OH (disulfide 3-11; N-terminus assumed; SMILES CC[C@H](C)[C@H](NC(=O)CNC)C(=O)N[C@H]1CSSC[C@@H](C(=O)N[C@H](C(=O)N2CCC[C@H]2C(=O)N[C@@H](CC(=O)O)C(=O)O)[C@@H](C)CC)NC(=O)[C@H]([C@@H](C)CC)NC(=O)[C@@H]2C[C@@H]3CCCC[C@@H]3N2C(=O)[C@@H]2CCCN2C(=O)[C@H](CC(C)C)NC(=O)[C@H](CO)NC(=O)[C@H](CCCNC(=N)N)NC(=O)[C@H](CO)NC1=O) [Example 349: ((N-Me)G)-IC+SRSLP-(Oic)-IC+IPD-OH]	0.0096 µM	0.42 µM
AICSRS[(2S)‑2‑Amino‑4,4,4‑trifluorobutanoic acid]PPI[NMeC]IPD-NH2 (disulfide 3-11) [Example 337: AIC+SRS-((2S)-2-Amino-4,4,4-trifluorobutanoic acid)-PPI-((N-Me)C)+IPD-NH2]	0.025 µM	2 µM
[Me2Gly]ICSRSLPPICIPD-NH2 (disulfide 3-11; SMILES CC[C@H](C)[C@H](NC(=O)CN(C)C)C(=O)N[C@H]1CSSC[C@@H](C(=O)N[C@H](C(=O)N2CCC[C@H]2C(=O)N[C@@H](CC(=O)O)C(N)=O)[C@@H](C)CC)NC(=O)[C@H]([C@@H](C)CC)NC(=O)[C@@H]2CCCN2C(=O)[C@@H]2CCCN2C(=O)[C@H](CC(C)C)NC(=O)[C@H](CO)NC(=O)[C@H](CCCNC(=N)N)NC(=O)[C@H](CO)NC1=O) [Example 350: ((N,N-diMe)G)-IC+SRSLPPIC+IPD-NH2]	0.028 µM	0.37 µM
ICSRS[tBuAla]PPI[Pen]I-NH2 (disulfide 2-10; N-terminus assumed; SMILES CC[C@H](C)[C@H](N)C(=O)N[C@H]1CSSC(C)(C)[C@@H](C(=O)N[C@H](C(N)=O)[C@@H](C)CC)NC(=O)[C@H]([C@@H](C)CC)NC(=O)[C@@H]2CCCN2C(=O)[C@@H]2CCCN2C(=O)[C@H](CC(C)(C)C)NC(=O)[C@H](CO)NC(=O)[C@H](CCCNC(=N)N)NC(=O)[C@H](CO)NC1=O) [Example 345: IC+SRS-((tBu)A)-PPI-(Pen)+I-NH2]	0.027 µM	0.39 µM
X5-ICSRS[tBuAla]PPICIPD-NH2 (disulfide 2-10; SMILES CC[C@H](C)[C@H](NC(=O)CC1CCOCC1)C(=O)N[C@H]1CSSC[C@@H](C(=O)N[C@H](C(=O)N2CCC[C@H]2C(=O)N[C@@H](CC(=O)O)C(N)=O)[C@@H](C)CC)NC(=O)[C@H]([C@@H](C)CC)NC(=O)[C@@H]2CCCN2C(=O)[C@@H]2CCCN2C(=O)[C@H](CC(C)(C)C)NC(=O)[C@H](CO)NC(=O)[C@H](CCCNC(=N)N)NC(=O)[C@H](CO)NC1=O) [Example 342: (Tetrahydropyranyl-4-acetic acid)-IC+SRS-((tBu)A)-PPIC+IPD-NH2]	0.026 µM	0.017 µM
